Experimental data from the nanobody polyreactivity screen of Harvey et al. (2022).

Test: yeast display, Sf9 membrane polyspecificity reagent, FACS + sequencing; frameworks hold sequencing errors
Method in brief: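 In a synthetic yeast display library (Saccharomyces cerevisiae BJ5465), nanobody expression was induced with galactose for 36–48 hours. FACS gates were set low and high (top ~1%) using anti-HA fluorescence for expression and streptavidin fluorescence for binding of the Sf9 membrane reagent. Each polyreactivity label is drawn from the gate of origin.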

Sequence	polyreactivity (PSR sort gate)
QVQLVESGGGLVQAGGSLRLRCAASGLTFWGYPMGWYRQAPGKEREFVASITSGGGSTYYADSVKGRFTISRDNAKNTVYLQMNILNPEDTAVYYCNVDVHLYLYKSYTYRYYYWGQGTQVTVSS	low polyreactivity
QVQLVESGGGLVQAGGSLRLSCAASGSTYTRYAMGWYRQATGKDRELVAAISRSGGSTYYADSVKGRFTISRDNAKNTVYLQMNSLKPEDTAVYYCRKFTLTTVTNYWGQGTQVTVSS	high polyreactivity
QVQLVESGGGLVQAGGSLRLTCAASGYTFRGYAMGWYRQAPGKEREFVAAINWSDGSTYYADSVKGRFTISRDNAKNTVYLQMNSLKPEDTAVYYCNADQYYRVPDNYWGQGTQVTVSS	low polyreactivity
QVQLVESGGGLVQAGGSLRLRWAASGRIFHHYAMGWYRPAPGKERELVAAISSGGSTYYADSVKGRFTISRDNAKNTVYLQMNSLKPEVTAVYYCAAYWYSPEYDYWGQGTQVTLSS	high polyreactivity
QVQLVESGGGLVQAGGSLRLSCAASGRIFGGNAMGWYRPAPGKERELVAAITTRGGSTYADSVKGRFTISRDNAKNTVYLQMNSLKPEDTAVYYCAVERSYHGGPRYLVRTYGYWGQGTQVTVSS	low polyreactivity
QDQLVESGGGLVQAGGSLRLSCAASGRTFNPYAMGSYRQAPGKERELVAAIRWRGTRTYYADSVKGRFTISRDNAKNTVYLQMNSLKPEDTAVYYCAADDPHSREMDYWGQGTQVTVSS	high polyreactivity
QVQLVESGGGLVQAGGSLRLSCAASGSTFTFNAMGWYRQAPGKERELVAAITTSAGSTYYADSVKGRFTISRDNAKNTVYLQMNSLKPEDTAVYYCAARYVPPWGRRYYYWGQGTQVTVSS	high polyreactivity
QVQLVESGGGVVQAGGSLRLSCAASGTIFYENAMGWYRQAPGKEREFVATIDLIGDRTYYADSVKGRFTISRDNAKNTVYLQMNSLKPEDTAVYYCAAERVGVFFRYDYWGQGTQVTVSS	low polyreactivity
QVQLVESGGGLVQAGGSLRLSCAASGRILVSYAMGWYRQAPGKERELVAAISRSGGSTYYADSVKGRFTISRDNAKNSVYLQMNSLKPEDSAVYYCNVYRFSRYDYWGQGTQVTVSS	high polyreactivity
QGQLVESGGGLVQAGGSLRLSCAASGGTFLWNAMGWYRQAPGKERELVAAIRWSGARTYYADSVKGRFTISRDNAKNTVYLQMNSLKPEDTAVYYCASENYWYWPYNGMYYWGQGTQVTVSS	high polyreactivity
QVQLVESGGGLVQAGGSLRLSCAASGRILKWNAMGWYRQAPGKERELVAAISQSGGSTYYADSVKGRFTISRDNAKNTVYLQMNSLKPEDTAVYYCATSGDWWGFRYDYWGQGTQVTVSS	low polyreactivity
QVQLVESGGGLGQAGGSLRLSCAASGRIFTFNAMGWYRQAPGKARELVAAISSRGDGTYYADSVKGRFTISRDNAKNTVYLQMNSLKPEDTAVYDCAADVYPYQSLSYPLQYELDYWGQGTQVTVSS	low polyreactivity
QVQLVESGGGLVQGGGSLRLSCAASGRIFDYYTMGWYRPAPGKERELVAAISSGGSTNYADYVKGRFTISRDNAKNTVYLQMNSLKPEDTAVYYCNVDLTTVGHWYYYRPGYDYWEQGTQVTVSS	low polyreactivity
QVQLVQSGGGLVQEGGSLRLSCYASGRIFSIYTLGWYRQAPGKERELVAAIRWSGGSTYYADSVKWRLTISRDNAKNTVYLQMNSLKPEDTAVYYCARQSVLGYRSYGPFPKYYYWGQGTQVTVSS	high polyreactivity
QVQLVESGGGLVQAGGSLRLSCAASGYIFVHYAMGWYRQAPGKERDLVAAITRGGNTYYADSVKGRFTISRDNANNTVNLQMNSLKPEDTAVHYCAADNYGRGAGYDYWGQGSQVTVSS	high polyreactivity
QVQLVESGGGLVQAGGSLRLSCAASGFTFRSYDMGWYRQAPGKERELVAAISSTGRTYYADSVKGRFTISRDNAKNTVYLHMYSLNPEDTAVYYCARNIPVSYYRYGYWGQGSQVTVSS	high polyreactivity
QVQLVESGGGLVQAGGSLRLSCAASGSNFQVYAMGWYRQAPGKERELVATIRRTGGSTYYADSVKGRFTISRDNAKNTVYLQMNSLKPEDTAVYYCAARTYGGYVLRLDYWGQGTQVTVSS	high polyreactivity
QVQLVESGGGLVQAGGRLRLSCAASGRIFTPNPMGWYRQAPGKERELVAAITTSAGRTYYADSVKGRFSISRDNAKNTVYLQMNSLKPEDTAVYYCAARYFPIRGYSWGQGSQVTVSS	high polyreactivity
QVQLVESGGGLVQAGGSLRLSCAASGRTYRSNVMGWYRQAPGKERELVASITWSGGTTYYADSVKVRFTISRDNAKNTVYLQMNSLKPEDTAVYYCNAADERSQGWVGYDHWGQCTQVTVSS	low polyreactivity
QVQLVESGGGLVQAGGSLRLSCAASGSTLATYTMGWYRQAPGKERELVAAISFGGSTYYADSVKGRFTISRDNAKNTVYLQMNRLKPEDTAVYYCAVYGDSYWGAYYYSDGYWGQGTQVTVSS	low polyreactivity
QVQLVESGGGLVQAGGSLRLSCAASGSTLAVYAMGWYRQAPGKERELDAAISYSGGGTYYADSVKGRFTISRDNAKNTVYLQMNSLKPEDTAVYYCATDLYYEYYTWDYYWGQGTQVTVSS	low polyreactivity
QVQLVESGGGLVQAGGSLRLSCAASGSIFGVYAMGWYRQAPGKERELVARISSGGGSTYYADSVKGRFTISRDNAKNTVYLQMNSLKPEDTAVYYCATRYYGYYPVNYWGQGTQVTVSS	high polyreactivity

Sequence	polyreactivity (PSR sort gate)
QVQLVESGGGLVQAGGSLRLSCAASGSTFTNYAMGRYRQSAGKERELLAAINSGGSTHYADSVKGRFTISRDNANNTVYLQMYSLKPEDTAVYYCDADPSALVYYWRWLGYDYWGQGTQVTVSS	high polyreactivity
QVQLVESGGGLVQAGGSLRLSCAASGLIFLHNAMGWYRQAPGKERELVAAIRDGDSTNYADSVKGRFTISRDNAKNTVYLQMNSLKPEDTAVYYCAKDPTLVAYAPGRYDYWGQGTQVTVSS	low polyreactivity
QVQLQGSGGGLVQAGGSLRLSCAASGNIFDADIMGWYRQAPGKESELVASITDGGSTNYADSVKGRFTISRDNAKNTVYLQMNSLKQVDTAVYYCAAIAYPDIPTYFDYDSDCFYWSQGTQVTVSS	high polyreactivity
QVQLVESGGGLVQAGGSLPLSCAASGSNFWRNALGWYRQAPGKERELVAAISGSGGSTYYADSVKGRFTISRDNAKNTVYLQMNSLKPEDTAVYYSYVSRMDYWGQGTQVTVSS	high polyreactivity
QVQLVESGGGLVQAGGSLRLSCAASGNTFLYYAMGWYRQAPGKEMELVASINLSDGCTYYADSVKGRFTISRDNAKNTVYFQMTSLKPEDTAVYYCAAVFGGYTIYDYWGQGTQVTVSS	low polyreactivity
QVQLVESGGRLVQAGGSLRLSCAASGRIFASNAMGWYRQAPGKERELVAAITTTGGSTYYADSVKGRFTISRDNAKNTVYLQMNSLKPEDTAVYYCAARAIPRVRRYGSMNYWGQGTQVTVSS	high polyreactivity
QVQLVESGGGLVQAGGSLRLSCAASGRIFQRYAMGWSRQAPGKERELVAPISWSVSSTYYADSVKGRFTISRDNAKNTVYLQMNSLKPEDTAVYYCNAAFHVTLGYLYREYDYWGQGTQVTVSS	high polyreactivity
QVQLVESGGGLVQAGGSLRLSCAASGSIFVYYDMGWYRQAPGKERELVAAISTTCGRTYYADSVKGRFTISRDNAKNTVYLQMNSLKPEATAVYYCAARYTIPYKRYDYWGQGPQVTVSS	high polyreactivity
QVQLVESGGGLVQAGGSLRLSCAASGRNFYSNAMGWYRQAPGKERELVAAIRWRDGSTYYADSVKGRFTISRDNAKNTVYLQMNSLKPEDTAVYYCAAVYWGEEYEYWGQGTQVTVSS	low polyreactivity
QVQLLESGGGLVQAGGSLRLSCAASGLTFGWYAMGWYRQAPGKERELVAAITWNSGSTYYADSVKGRFTISRDNAKNTVYLQMNSLKPVDTAVYYCAAGYQDSQEYDYWGQGTQVTVSS	low polyreactivity
QVQLVESGGGLVQAGGSLRLSCAASGFNFSYNAMGWYRQAPGKERELTYADSVKGRFTISRDNAKNTVYLQMNSLKLEDTAVYYCAAGEYGRQYDGDYWGQGTQVTVSS	low polyreactivity
QVQHVESGGGLVQAGGSLRLSCAASGVIIIGNAVGWYREAPVKEWEFVASIRGVGSTNYADSVKGRFTISRDNAKNTVYVQMNSLKPADSAVYYCATSVDRALYTQTRGDYEYWGQGTQVTVSS	low polyreactivity
QVQLVESGGGLVQAGGSLRLSCAASGRIFDPYAMGWYRQAPGKEREVVASISWSGGRTYYADSVKGRFTISRDNAKNTVYLQMNSLKPEDTAVYYCAARQWYRYKVRIDYWGQGTQVTVSS	high polyreactivity
QVQLVESGGGLVHAGGSLRLSCAASGGTFGYYAMGWYRQAPGQERDLVAAISGSGGSTYYADSVKGRYTISRDHAKNTFYFQMNSLKPEDTAVYYCNAYIFGEVPNNYYWGQGTQVTVSS	high polyreactivity
QVQLVESGGGLVQAGGSLRLSCAASGSIIGRNVMGWYRQAPGKERELVAVITGSGGGTYYADSVKGRFTISRDNAKNTVYLQMNSLKPEDTAVYYCAARKRGTFTYDYWGQGTQVTVSS	high polyreactivity
QVQLVESVGGLVQARGSLRLICAASVRIIRGNAMGWYRQAPGKERELVAAISRRSGSTYYADSVKGRFTISRDNAKNTVYLQMISLKPEDTAVYYCAATCSLGDFRYDYWGQGTQVSVSS	high polyreactivity
QVQLVESGGGLVQAGGSLRLSCAASGSTFAWYAMGWYRQAPGKERELVATISSSGVSTFYADSVKGRFTISRDNAKNTVYLQMNSLKPEDTAVYYCNRYGNSYYFAPGPLYNYWGQGTQVTVSS	high polyreactivity
QDQLVESGGGLVQAGGTLRLSCAASGRIFKSYAMGWYRQAPGKEREVVASISYTGGSTYYADSVKGRFTISRDNAKNTVYLEMNSLNPEDTAVYYFAAKRVRSAGSYGYWGQVTQVTVSS	low polyreactivity
QLQLVESGRGLVQAGGSLRLSCAASGITFPGYAMGWYRQAPGKERELVAAIDWSGDGTYYADSVKGRFTISRENAKNTVYFQMNSLKPEDTAVFYCAKDNYPNHSTVLAVIYDNWGQGTQVTVSS	low polyreactivity
QVQLVESGGGLVQAGGSLRLSCAASGRTCGSNVMGWYRQAPGKERELVAAISRSGGSTHYADSVKGRFTISRDKAKNSVYLQMKSLNPEDTAVYYCAARYSGGSAYGYGSLGQGTQVTVSS	high polyreactivity
QDQLVESGGGLVQEGGSLRLSCAASGNIFNRYGMGWYRQAPGKEREFVAAISSGGGSTYYADSVKGRFTISRDNAKNTVYLQINRLKPEDTAVYYCAAGYSSLRRVGVYYWRQGTQVTVSS	high polyreactivity
